From US20220025056A1 (INNATE PHARMA, published 2022)
Where a chain is given by its changes, count along the chain named.

B1: 2A8A (antibody, human IgG1, V domains shown)
VH: QVQLQQSGPELVKPGASVKISCKASGYSFTNFYIHWVRQRPGQGLDWIGWIFPGSGETKFNEKFKVKATLTADTSSSTAYMQLNSLTSEDSAVYFCARSWNYDARWGYWGQGTSVTVSS
VL: QIVLTQSPASLAVSLGQRATISCRASESIDSYGISFLHWYQQKPGQPPKLLIYRASNLESGIPARFSGSGSRPDFTLTINPVEADDVATYYCQQSNEDPFTFGSGTKLEIK
B2: 2D8 (antibody, human IgG1, V domains shown)
VH: B1 VH with Q1E, A24S, R38K, K59N, T69A, S77N, N84S, S114T
VL: B1 VL with Q1D, I2A, L4M, S7T, I29V, L37M, N57I, T76S
B3: 4E3B (antibody, human IgG1, V domains shown)
VH: EVHLQQSGPELVKPGASVKISCKASGYSFTNYYIQWVKQRPGQGLEWIGWIFPGSGETNYNENFRAKATLSADTSSTTAYMQLSSLTSEDSAVYFCARTWNYDARWGYWGQGTTVTVSS
VL: B1 VL with Q1D, V3L, A25P, S28N, L37M, Y40C, A64V, P73T
B4: 3E5 (antibody, human IgG1, V domains shown)
VH: DVQLQESGPELVKPGASVKISCKSSGYSFTNFYIHWVKQRPGQGLDWIGWIFPGTGETNFNEKFKVKAALTADTSSSTVYMQLSTLTSEDSAVYFCARSWNYDARWGYWGQGTSITVSS
VL: B1 VL with Q1E, I2N, Y32F, L37M, R72G, T76S, N80D, D98A
B5: 4C11B (antibody, human IgG1, V domains shown)
VH: QVQLKESGPELVKPGASVKISCKASGYSFTNYYIHWVKQRPGQGLEWIGWIFPGSGETNYSEKFKGEAILTADTSSNTAYMQLSSLTSEDSAVYFCARSWNYDARWGYWGQGTTLTVSS
VL: B1 VL with T5S, A9V, L15P, L37M, Q41K, P73T
B6: 2E11 (antibody, human IgG1, V domains shown)
VH: B5 VH with A24T, E57D, S61N, E67K, I69T, Y80S, Q82H, S99T
VL: B1 VL with Q1D, L4M, A25V, L37M, P44S, L50V, N57T, P73T
B7: 4H3 (antibody, human IgG1, V domains shown)
VH: B5 VH with A24T, S28I, E57D, S61N, E67K, I69T, N77S, Y80S, S99T, L115V
VL: B1 VL with Q1D, V3L, A25V, L37M, P44S, L50V, N57T, P73T
B8: 6C6 (antibody, human IgG1, V domains shown)
VH: B1 VH with Q1E, R38K, K59N, F60Y, K63R, V66G, A72S, N84S, S114T, V115L
VL: B1 VL with S7T, L37M
B9: 2E2B (antibody, human IgG1, V domains shown)
VH: B3 VH with E1D, H3Q, Q5V, Q6E, I34M, S55G, T58S, N63K, R65K, A66G
VL: B1 VL with Q1D, R24I, A25P, L37M, P73T
B10: 2E2C (antibody, human IgG1, V domains shown)
VH: B3 VH with V2F, H3Q, I34M, T58S, N63K, R65K, A66G, V115L
VL: B1 VL with Q1D, L4M, R24I, A25P, L37M, P73T
B11: 1A10D (antibody, human IgG1, V domains shown)
VH: B5 VH with E6Q, Y60F, S61N, E67K, I69T, N77S, L83F, S99T, L115V
VL: B1 VL with Q1E, L37M, P73T
B12: 2C8 (antibody, human IgG1, V domains shown)
VH: B3 VH with H3Q, Q5K, S55N, N63K, R65K, A66G, S71T, T77S, T114S
VL: B1 VL with Q1D, V3L, A12T, S26N, L37M, E59D, P73T
B13: 3E9B (antibody, human IgG1, V domains shown)
VH: B3 VH with H3Q, Q6E, A24T, Q35H, N63K, R65K, A66G
VL: B1 VL with Q1E, V3L, S28T, L37M, P73T
B14: 3E7B (antibody, human IgG1, V domains shown)
VH: B5 VH with E6Q, Y60F, S61N, E67K, I69T, N77S, L83F, S99T, L115V
VL: B1 VL with Q1E, V3Q, L4M, S28G, L37M, K49T, E59V, P73T, S95T
B15: 3E7A (antibody, human IgG1, V domains shown)
VH: B5 VH with E6Q, Y60F, S61N, E67K, I69T, N77S, L83F, S99T, L115V
VL: B1 VL with Q1D, V3L, L4M, S28G, L37M, K49T, P73T, S95T
B16: 5D9 (antibody, human IgG1, V domains shown)
VH: B5 VH with P53L, S61N, N77T
VL: B1 VL with Q1E, L37I, P73T, D85E
B17: 2A9 (antibody, human IgG1, V domains shown)
VH: B3 VH with H3K, Q35H, N63K, R65K, A66V, V115L
VL: B1 VL with Q1D, I2V, L4V, S7T, L37M, P73T
B18: 2H12 (antibody, human IgG1, V domains shown)
VH: EVKLQQSGPDLVKPGASVKISCKASGYSFTNFYIHWVKQRPGQGLEWIGWIFPGNGETNYSEKFKGKATLTADTSSSTAYMQFNSLTYEDSAVYFCARTWNYDARWGYWGQGTTLTVSS
VL: DILLTQSPASLAVSLGQRATISCRASDGIDSYGISFMHWYQQKPGQPPTLLIYRASTLESGIPARFSGSGSRTDFTLTINPVEADDVATYYCQQTNEAPFTFGSGTKLELK
B19: 3A7A (antibody, human IgG1, V domains shown)
VH: QVQLKESGPELVKPGTSVKISCKASGYNFRNYYIQWVKQRPGQGLEWIGWIFPGNNETNYNEKFKGKATLSADTSSTTAYMQLSSLTSEDSAVYFCARSWNYDARWGYWGQGTTVTVSS
VL: DVVMTQTPASLAVSLGQRATISCRASEIIDNYGISFIHWYQQKPGQPPKLLIYRASNLESGIPARFSGSGSRTDSTLTINPVGADDVATYYCQQSNEDPFTFGSGTKLELK
B20: 1A9 (antibody, human IgG1, V domains shown)
VH: B18 VH
VL: B18 VL with I2V, L3V, L4M, S7T, H38R, D74N, A98D, L110I

molecular target: T1, ILT2 mutant 2 (human, UniProt Q8NHL6 24-650); experiment: flow cytometry, ILT2 point mutants
T1 construct: transfected in HEK293T cells; also called M2
T1 sequence (Q8NHL6 other isoform, or with tags, fused parts or gaps mutant): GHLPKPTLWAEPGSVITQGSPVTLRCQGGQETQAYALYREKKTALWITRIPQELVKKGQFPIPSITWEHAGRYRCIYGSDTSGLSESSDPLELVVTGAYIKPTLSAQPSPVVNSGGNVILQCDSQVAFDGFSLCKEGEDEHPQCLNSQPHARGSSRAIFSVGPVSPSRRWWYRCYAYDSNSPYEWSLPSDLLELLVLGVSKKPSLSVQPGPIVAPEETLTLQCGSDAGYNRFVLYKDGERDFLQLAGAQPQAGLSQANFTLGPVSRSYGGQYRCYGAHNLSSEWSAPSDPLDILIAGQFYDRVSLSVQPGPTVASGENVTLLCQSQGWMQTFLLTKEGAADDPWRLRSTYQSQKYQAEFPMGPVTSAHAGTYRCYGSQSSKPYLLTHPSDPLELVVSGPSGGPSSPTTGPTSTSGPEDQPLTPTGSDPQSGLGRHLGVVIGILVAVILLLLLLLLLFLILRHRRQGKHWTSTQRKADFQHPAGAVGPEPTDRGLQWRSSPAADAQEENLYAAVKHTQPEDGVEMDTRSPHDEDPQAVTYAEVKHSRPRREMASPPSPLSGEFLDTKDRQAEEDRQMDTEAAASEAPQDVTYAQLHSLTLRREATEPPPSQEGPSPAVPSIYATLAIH

Binding result, no binding:
B1
B2
B3
B4
B5
B6
B7
B8
B9
B10
B11
B12
B13
B14
B15
B16
B17
B18

molecular target: T2, anchored ILT2 D4 domain protein (human, UniProt Q8NHL6 322-650); experiment: flow cytometry, CHO cells with anchored ILT2 domain proteins
T2 construct: on CHO cells; the entry includes leader remnant, V5 tag, and the ILT2 transmembrane and cytoplasmic parts
T2 sequence (Q8NHL6 other isoform, or with tags, fused parts or gaps limits assumed): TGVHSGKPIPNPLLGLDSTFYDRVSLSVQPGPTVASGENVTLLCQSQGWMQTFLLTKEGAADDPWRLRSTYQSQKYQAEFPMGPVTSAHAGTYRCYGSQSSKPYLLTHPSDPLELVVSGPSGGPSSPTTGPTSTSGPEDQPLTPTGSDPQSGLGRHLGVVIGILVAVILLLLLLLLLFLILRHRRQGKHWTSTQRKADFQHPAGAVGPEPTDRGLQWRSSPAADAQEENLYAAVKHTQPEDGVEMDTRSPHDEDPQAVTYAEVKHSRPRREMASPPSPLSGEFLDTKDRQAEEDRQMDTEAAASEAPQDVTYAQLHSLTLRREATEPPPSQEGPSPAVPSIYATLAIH

Binding result, no binding:
B19
B20

molecular target: T3, anchored ILT2 D2 domain protein (human); experiment: as above
T3 construct: on CHO cells; the entry includes leader remnant, V5 tag and CD24 GPI anchor signal
T3 sequence (chain, as listed by the source limits assumed): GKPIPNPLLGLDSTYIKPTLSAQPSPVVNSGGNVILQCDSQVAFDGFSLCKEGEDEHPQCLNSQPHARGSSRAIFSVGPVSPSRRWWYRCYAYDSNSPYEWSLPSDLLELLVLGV

Binding result, no binding:
B19
B20

molecular target: T4, human ILT6 (LILRA3) on CHO cells (human, UniProt Q8N6C8 24-434); experiment: flow cytometry, CHO transfectants
T4 construct: also called CHO ILT6 cell line; human ILT-6 polypeptide
T4 sequence (Q8N6C8 other isoform, or with tags, fused parts or gaps): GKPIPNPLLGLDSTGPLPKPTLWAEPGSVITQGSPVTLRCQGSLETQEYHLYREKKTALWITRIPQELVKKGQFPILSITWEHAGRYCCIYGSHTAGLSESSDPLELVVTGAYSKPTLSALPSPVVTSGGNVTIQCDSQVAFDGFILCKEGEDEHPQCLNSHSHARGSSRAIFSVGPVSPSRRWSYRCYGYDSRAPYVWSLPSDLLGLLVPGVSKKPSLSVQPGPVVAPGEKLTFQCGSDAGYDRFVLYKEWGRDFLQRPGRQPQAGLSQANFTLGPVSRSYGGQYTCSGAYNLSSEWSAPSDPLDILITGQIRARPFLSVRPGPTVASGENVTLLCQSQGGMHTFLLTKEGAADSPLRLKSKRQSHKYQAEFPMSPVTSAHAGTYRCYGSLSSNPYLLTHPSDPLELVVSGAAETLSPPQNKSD

Binding result, no binding:
B1
B2
B3
B4
B5
B6
B7
B8
B9
B10
B11
B12
B13
B14
B15
B16
B17
B18
